# Target: T1, mutated-truncated DsbC (mtDsbC) tagged SARS-CoV-2 Receptor Binding Domain (RBD) (Severe acute respiratory syndrome …, UniProt P0DTC2, biotin (biotinylated, site not stated))
# T1 construct: also called mtDsbC-SARS-CoV-2 wild type; SARS-CoV-2 RBD
# Assay: BLI; biotinylated antigen (5 µg/mL) immobilised on Streptavidin biosensors; five concentrations of Fab or FabH3 (3-243 nM); Octet RED384, 30 °C, 1000 rpm, 1X PBS Kinetics Buffer; global fit, 1:1 interaction model
# Conditions: both partners purified
binder,measurement,value
"REGN10987-based FabH3 (GS-G4 linker) (other, VH domain of REGN10987, as the VH of the heavy chain of m1; flexible glycine-serine linker, printed only as the formula 'GS-G4' (G: glycine, S: serine); spelled out from that formula; IgG1 heavy chain constant 3 (CH3) domain; VL domain of REGN10987, as the VL of the light chain of m1; E356 is 239 and D399 is 282 in P01857; also called REGN10987 FabH3; FabH3 format; copies: 1 + 1) VH: QVQLVESGGGVVQPGRSLRLSCAASGFTFSNYAMYWVRQAPGKGLEWVAVISYDGSNKYYADSVKGRFTISRDNSKNTLYLQMNSLRTEDTAVYYCASGSDYGDYLLVYWGQGTLVTVSS VL: QSALTQPASVSGSPGQSITISCTGTSSDVGGYNYVSWYQQHPGKAPKLMIYDVSKRPSGVSNRFSGSKSGNTASLTISGLQSEDEADYYCNSLTSISTWVFGGGTKLTVL",Kd,20 ± 2.6 nM
"REGN10987 wild type Fab (Fab, V domains shown, Fab heavy chain (VH-CH1) of REGN10987; Fab light chain (VL-CL, lambda) of REGN10987; Heavy and light chain are covalently linked (one mass of 47,892 Da by ESI-MS); also called REGN10987 Fab; REGN10987-Fab) VH: QVQLVESGGGVVQPGRSLRLSCAASGFTFSNYAMYWVRQAPGKGLEWVAVISYDGSNKYYADSVKGRFTISRDNSKNTLYLQMNSLRTEDTAVYYCASGSDYGDYLLVYWGQGTLVTVSS VL: QSALTQPASVSGSPGQSITISCTGTSSDVGGYNYVSWYQQHPGKAPKLMIYDVSKRPSGVSNRFSGSKSGNTASLTISGLQSEDEADYYCNSLTSISTWVFGGGTKLTVL",Kd,43 ± 4.4 nM

# — article PMC10469194 (Scientific Reports, 2023)
